The chains are these.
B1: TPR 5TU (parent)
chain: GGAUCUUCUCGAUCUAACAAAAAAGACAAAUCUGCCACAAAGCUUGAGAGCAUCUUCGGAUGCAGAGGCGGCAGCCUUCGGUGGCGCGAUAGCGCCAACGUUCUCAACUAUGACACGCAAAACGCGUGCUCCGUUGAAUGGAGUUUAUCAUG

Fewer inactive variants are shown than the library holds.

The variants in the data set derive from B1. The data set can be described thus: polymerase ribozyme fitness, log enrichment relative to wild type (log ratio); higher = more active; in vitro selection for triplet polymerase activity. Put shortly:
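In triplicate, a single round of in vitro selection was run on each mutant library, PCR-built and transcribed, covering one subunit of a heterodimeric triplet polymerase ribozyme. Frozen incubation at −7 °C followed annealing with a biotinylated primer, partner subunit and triplets, and extended constructs were then gel-excised, streptavidin-captured and taken through RT-PCR. Fitness is the logarithm of genotype enrichment over wild-type enrichment, from inverse-variance-weighted replicate averages of Illumina-sequenced inputs and outputs. […] only genotypes with ≥10 input reads and ≥1 read per output were kept.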
A20C G50C U55G C105U: the “polymerase ribozyme fitness (log ratio)” value was not above -4.2.

Consider A20U A60C A73G, for which the “polymerase ribozyme fitness (log ratio)” value is -2.81.

With A19U C99U G133C U144G, the “polymerase ribozyme fitness (log ratio)” value is -2.25.

As to A19G C51U A52C A60U G65A G84U C85A C87U A98C A138G, the “polymerase ribozyme fitness (log ratio)” value is not above -4.2.

With A19C G92U, the “polymerase ribozyme fitness (log ratio)” value stood at 0.745.

On to A19C G92A, for which the “polymerase ribozyme fitness (log ratio)” value was -2.38.

Consider A19C G86A, for which the “polymerase ribozyme fitness (log ratio)” value was -0.455.

Consider A21C C96U, for which the “polymerase ribozyme fitness (log ratio)” value was determined as 0.207.

Take A20U G67U C116G: the “polymerase ribozyme fitness (log ratio)” value is not above -4.2.

Consider A20G U77A C85U C105U U135A A138G, for which the “polymerase ribozyme fitness (log ratio)” value is not above -4.2.

Take A20C A21G G48A C54A A113C A147C: the “polymerase ribozyme fitness (log ratio)” value is not above -4.2.

In the case of A19U U56A A60G C75U C93A C118U U146A, the “polymerase ribozyme fitness (log ratio)” value is -3.86.

A20C A39U G42A A91U G133U: the “polymerase ribozyme fitness (log ratio)” value is not above -4.2.

Turning to A21C A49C A52C U53G G84U C95U G141A, the “polymerase ribozyme fitness (log ratio)” value was not above -4.2.

In the case of A19U A23U U90G C105A, the “polymerase ribozyme fitness (log ratio)” value is not above -4.2.

A20G G48A A119C A121U G136U: the “polymerase ribozyme fitness (log ratio)” value was -3.51.

With A20G C27G A29U A97G A120G U146G, the “polymerase ribozyme fitness (log ratio)” value is -4.06.

Turning to A21C A26U G140C U146A, the “polymerase ribozyme fitness (log ratio)” value was not above -4.2.

In the case of A20G C38G C69U G86U A91U C99G A137G, the “polymerase ribozyme fitness (log ratio)” value was not above -4.2.

On to A20U U33G G42U C63G G71A A113G, for which the “polymerase ribozyme fitness (log ratio)” value was not above -4.2.

For the variant A19C G59A U144C, the “polymerase ribozyme fitness (log ratio)” value amounted to 1.14.

A19C U55G C96A C108G C116G A119C: the “polymerase ribozyme fitness (log ratio)” value is not above -4.2.

Turning to A19U C85U, the “polymerase ribozyme fitness (log ratio)” value was -0.763.

With A19U A39G G74U C85G G128C C129U, the “polymerase ribozyme fitness (log ratio)” value was not above -4.2.

In the case of A20C G83C C96G, the “polymerase ribozyme fitness (log ratio)” value is -1.83.

Take A19G G48A C75G C93A: the “polymerase ribozyme fitness (log ratio)” value is not above -4.2.

Take A19U A30U U56A G62C C76U: the “polymerase ribozyme fitness (log ratio)” value was not above -4.2.

In the case of A20U A113C G133C, the “polymerase ribozyme fitness (log ratio)” value was not above -4.2.

For the variant A19G C27U, the “polymerase ribozyme fitness (log ratio)” value was -1.17.

For A19G A23U C38U G42U G68A U82A, the “polymerase ribozyme fitness (log ratio)” value is not above -4.2.

For A19U C43U A73U C79U A106U A107C, the “polymerase ribozyme fitness (log ratio)” value was not above -4.2.

For the variant A19C G88C, the “polymerase ribozyme fitness (log ratio)” value was -3.96.

As to A20U A40C G80U G83A C99U G133U A142G U145C, the “polymerase ribozyme fitness (log ratio)” value is not above -4.2.

As for A20G U45C U56G C57U C75A C87G G136C, the “polymerase ribozyme fitness (log ratio)” value was not above -4.2.

As for A19C U53A, the “polymerase ribozyme fitness (log ratio)” value was -1.57.

A20U A150G: the “polymerase ribozyme fitness (log ratio)” value was -1.81.

For A20G A47G, the “polymerase ribozyme fitness (log ratio)” value was -0.368.

For A20G C54G U82A A98U U144A, the “polymerase ribozyme fitness (log ratio)” value is -4.1.

Take A20U A137C: the “polymerase ribozyme fitness (log ratio)” value was -3.99.

Turning to A19U A26G A122G, the “polymerase ribozyme fitness (log ratio)” value was not above -4.2.

For the variant A19U A39G C85U U134G, the “polymerase ribozyme fitness (log ratio)” value was not above -4.2.

On to A21C A40C G94A G128U, for which the “polymerase ribozyme fitness (log ratio)” value is -3.51.

As to A21C A24U G46U C57U C93U, the “polymerase ribozyme fitness (log ratio)” value is -1.65.

Consider A19C C36U G70A G80U C105U G152U, for which the “polymerase ribozyme fitness (log ratio)” value is -3.99.

For A19C U53G C85U G92A C103A G141C, the “polymerase ribozyme fitness (log ratio)” value was not above -4.2.

Turning to A20U A21U A37C C96A A121G, the “polymerase ribozyme fitness (log ratio)” value is -1.8.

Take A20U U33C G71C G92U C96G A119U C125A: the “polymerase ribozyme fitness (log ratio)” value is not above -4.2.

Turning to A20U A26G C27A C36U C93U A147U, the “polymerase ribozyme fitness (log ratio)” value was not above -4.2.

For A20C G84U, the “polymerase ribozyme fitness (log ratio)” value is -3.03.

A19G G50C C75G C85G C103A U135C: the “polymerase ribozyme fitness (log ratio)” value is not above -4.2.

Take A20U A26U A29U G46A A49C A106U: the “polymerase ribozyme fitness (log ratio)” value was not above -4.2.

For the variant A19U A21C C54U U134A, the “polymerase ribozyme fitness (log ratio)” value was not above -4.2.

Consider A20U C87G A91U, for which the “polymerase ribozyme fitness (log ratio)” value is not above -4.2.

Turning to A19C U56A U104A A119U, the “polymerase ribozyme fitness (log ratio)” value is -0.197.

With A20C A47U U101A A122U, the “polymerase ribozyme fitness (log ratio)” value was -0.358.

Regarding A19G C69G C76U U82G G88A G141U A150C, the “polymerase ribozyme fitness (log ratio)” value is not above -4.2.

On to A20C C79A U82C A107C, for which the “polymerase ribozyme fitness (log ratio)” value is not above -4.2.

Turning to A19U A23G G84A U101G A115C, the “polymerase ribozyme fitness (log ratio)” value is -3.62.

For the variant A20C U55G G67U C72A C85U, the “polymerase ribozyme fitness (log ratio)” value was not above -4.2.

A20C U53A G84A: the “polymerase ribozyme fitness (log ratio)” value was -1.69.

Consider A19G G68U C79G G84A G86A U135C G140U, for which the “polymerase ribozyme fitness (log ratio)” value was not above -4.2.

For A21C A26C C27U U44G A52G G58C U90A G92A G100U, the “polymerase ribozyme fitness (log ratio)” value is not above -4.2.

For the variant A20C C54U G70C C93A, the “polymerase ribozyme fitness (log ratio)” value is not above -4.2.

A20U G62C G94A: the “polymerase ribozyme fitness (log ratio)” value is -3.04.

In the case of A20G U55G C116U A121C, the “polymerase ribozyme fitness (log ratio)” value was -0.705.

Take A19G C96U C123U: the “polymerase ribozyme fitness (log ratio)” value is -0.681.

For the variant A19U C54G C79A U82C G84A A89C G92C U144C, the “polymerase ribozyme fitness (log ratio)” value was not above -4.2.

For A20C A41U G59A A60U C69G G86A C103G, the “polymerase ribozyme fitness (log ratio)” value is not above -4.2.

Take A19G C27A C57A G92U A97G G133A U134G: the “polymerase ribozyme fitness (log ratio)” value was not above -4.2.

With A20U G48C C57G G128A, the “polymerase ribozyme fitness (log ratio)” value is not above -4.2.

In the case of A19U A22C C93U U145A, the “polymerase ribozyme fitness (log ratio)” value is -1.22.

For the variant A21C A91G C96U, the “polymerase ribozyme fitness (log ratio)” value was -3.34.

A20C G94U G152C: the “polymerase ribozyme fitness (log ratio)” value was -2.76.

A20C A28U C93U C129U G143A: the “polymerase ribozyme fitness (log ratio)” value is not above -4.2.

A19G A40C C85G A147C: the “polymerase ribozyme fitness (log ratio)” value is -3.28.

On to A20G U53A, for which the “polymerase ribozyme fitness (log ratio)” value is -1.01.

Turning to A20C A120G, the “polymerase ribozyme fitness (log ratio)” value is -0.986.

As for A20G G136A, the “polymerase ribozyme fitness (log ratio)” value was 0.27.

Regarding A21C A52G C103G, the “polymerase ribozyme fitness (log ratio)” value was -1.21.

Consider A20U A41U C63A A106G U145A, for which the “polymerase ribozyme fitness (log ratio)” value is -2.83.

On to A19U G92C, for which the “polymerase ribozyme fitness (log ratio)” value is -1.68.

In the case of A21C G50C C63U C93G, the “polymerase ribozyme fitness (log ratio)” value is -1.78.

On to A20G C36U A119U A120C C129U A142G, for which the “polymerase ribozyme fitness (log ratio)” value is -4.1.
